From the supplement of paper PMC5998384 come the findings set out here.

Data set [1] relates to HeLa Kyoto. Description: solubility in G1/S (NP-40 vs SDS abundance) (log2 ratio); higher = more soluble. The following applies: cell cycle stage: G1/S.
Data set [2] has as its system HeLa Kyoto. Description: melting temperature (median over replicates), in situ; higher = more thermally stable.
The subject of data set [3] is HeLa Kyoto. Description: thermal stability score vs G1/S (z-score of summed log2 fold changes over temperatures); higher = more thermally stable than in G1/S.
For data set [4], the system named is HeLa Kyoto. Description: solubility change mitosis vs G1/S (difference of NP-40 vs SDS log2 ratios) (log2 ratio difference); higher = more soluble in mitosis.
Setting [5] is: cell cycle stage: early G1 (4.5 h after nocodazole release).
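For melting temperature (median over replicates), in situ in this document: HeLa Kyoto cells synchronized by double thymidine or nocodazole block, proteins quantified by TMT10plex mass spectrometry, three independent biological replicates.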
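For solubility change mitosis vs G1/S (difference of NP-40 vs SDS log2 ratios) in this document: synchronized HeLa Kyoto cells (double thymidine block for G1/S, nocodazole release for mitosis), protein amounts in NP-40 versus SDS lysates quantified by mass spectrometry, three biological replicates.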
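For solubility in G1/S (NP-40 vs SDS abundance) in this document: HeLa Kyoto cells arrested at G1/S by double thymidine block, proteins quantified by TMT10plex mass spectrometry in mild NP-40 versus SDS extracts, three biological replicates.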
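For thermal stability score vs G1/S (z-score of summed log2 fold changes over temperatures) in this document: synchronized HeLa Kyoto cells, proteins quantified by TMT10plex mass spectrometry, three biological replicates, mitosis taken 0.5 h after nocodazole release, G1/S directly after double thymidine block.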

In the case of “MDTMMLNVRNLFEQLVRRVEILSEGNEVQFIQLAKDFEDFRKKWQRTDHELGKYKDLLMKAETERSALDVKLKHARNQVDVEIKRRQRAEADCEKLERQIQLIREMLMCDTSGSIQLSEEQKSALAFLNRGQPSSSNAGNKRLSTIDESGSILSDISFDKTDESLDWDSSLVKTFKLKKREKRRSTSRQFVDGPPGPVKKTRSIGSAVDQGNESIVAKTTVTVPNDGGPIEAVSTIETVPYWTRSRRKTGTLQPWNSDSTLNSRQLEPRTETDSVGTPQSNGGMRLHDFVSKTVIKPESCVPCGKRIKFGKLSLKCRDCRVVSHPECRDRCPLPCIPTLIGTPVKIGEGMLADFVSQTSPMIPSIVVHCVNEIEQRGLTETGLYRISGCDRTVKELKEKFLRVKTVPLLSKVDDIHAICSLLKDFLRNLKEPLLTFRLNRAFMEAAEITDEDNSIAAMYQAVGELPQANRDTLAFLMIHLQRVAQSPHTKMDVANLAKVFGPTIVAHAVPNPDPVTMLQDIKRQPKVVERLLSLPLEYWSQFMMVEQENIDPLHVIENSNAFSTPQTPDIKVSLLGPVTTPEHQLLKTPSSSSLSQRVRSTLTKNTPRFGSKSKSATNLGRQGNFFASPMLK [RACGAP1]”, the “solubility in G1/S (log2)” value in the data set with HeLa Kyoto [1] is -0.106. For the same sequence, the melting temperature amounted to 48.1 °C with HeLa Kyoto [2] (cell cycle stage: G1/S) and 49.1 °C in the data set on HeLa Kyoto [2] (cell cycle stage: mitosis). Moreover, the results for the thermal stability score with HeLa Kyoto [3] (setting [5]) and with HeLa Kyoto [3] (cell cycle stage: mitosis) were 1.13 and 1.61, respectively. Also, in the data set with HeLa Kyoto [4], the “solubility change mitosis (log2)” value is 0.141.

For “MDVAESPERDPHSPEDEEQPQGLSDDDILRDSGSDQDLDGAGVRASDLEDEESAARGPSQEEEDNHSDEEDRASEPKSQDQDSEVNELSRGPTSSPCEEEGDEGEEDRTSDLRDEASSVTRELDEHELDYDEEVPEEPAPAVQEDEAEKAGAEDDEEKGEGTPREEGKAGVQSVGEKESLEAAKEKKKEDDDGEIDDGEIDDDDLEEGEVKDPSDRKVRPRPTCRFFMKGNCTWGMNCRFIHPGVNDKGNYSLITKADPFPPNGAPPLGPHPLMPANPWGGPVVDEILPPPPPEPPTESAWERGLRHAKEVLKKATIRKEQEPDFEEKRFTVTIGEDEREFDKENEVFRDWNSRIPRDVRDTVLEPYADPYYDYEIERFWRGGQYENFRVQYTETEPYHNYRERERERERENRQRERERERERDRERERRQRERERERERERDKERQRRKEEWERERAKRDEKDRQHRDRDREKEREKEKGKPKPRSPQPPSRQAEPPKKEAATTGPQVKRADEWKDPWRRSKSPKKKLGVSVSPSRARRRRKTSASSASASNSSRSSSRSSSYSGSGSSRSRSRSSSYSSYSSRSSRHSSFSGSRSRSRSFSSSPSPSPTPSPHRPSIRTKGEPAPPPGKAGEKSVKKPAPPPAPPQATKTTAPVPEPTKPGDPREARRKERPARTPPRRRTLSGSGSGSGSSYSGSSSRSRSLSVSSVSSVSSATSSSSSAHSVDSEDMYADLASPVSSASSRSPAPAQTRKEKGKSKKEDGVKEEKRKRDSSTQPPKSAKPPAGGKSSQQPSTPQQAPPGQPQQGTFVAHKEIKLTLLNKAADKGSRKRYEPSDKDRQSPPPAKRPNTSPDRGSRDRKSGGRLGSPKPERQRGQNSKAPAAPADRKRQLSPQSKSSSKVTSVPGKASDPGAASTKSGKASTLSRREELLKQLKAVEDAIARKRAKIPGKA [ZC3H18]”, the “solubility in G1/S (log2)” value in the data set with HeLa Kyoto [1] was -0.653. Besides, the melting temperature in the data set with HeLa Kyoto [2] (cell cycle stage: G1/S) is 48.7 °C; in the data set on HeLa Kyoto [2] (cell cycle stage: mitosis), 51.3 °C. Further, the thermal stability score in the data set on HeLa Kyoto [3] (setting [5]) was determined as 7.23; with HeLa Kyoto [3] (cell cycle stage: mitosis) it was 11.9. Moreover, the “solubility change mitosis (log2)” value with HeLa Kyoto [4] was 0.144.

“MDVENEQILNVNPADPDNLSDSLFSGDEENAGTEEIKNEINGNWISASSINEARINAKAKRRLRKNSSRDSGRGDSVSDSGSDALRSGLTVPTSPKGRLLDRRSRSGKGRGLPKKGGAGGKGVWGTPGQVYDVEEVDVKDPNYDDDQENCVYETVVLPLDERAFEKTLTPIIQEYFEHGDTNEVAEMLRDLNLGEMKSGVPVLAVSLALEGKASHREMTSKLLSDLCGTVMSTTDVEKSFDKLLKDLPELALDTPRAPQLVGQFIARAVGDGILCNTYIDSYKGTVDCVQARAALDKATVLLSMSKGGKRKDSVWGSGGGQQSVNHLVKEIDMLLKEYLLSGDISEAEHCLKELEVPHFHHELVYEAIIMVLESTGESTFKMILDLLKSLWKSSTITVDQMKRGYERIYNEIPDINLDVPHSYSVLERFVEECFQAGIISKQLRDLCPSRGRKRFVSEGDGGRLKPESY [PDCD4]”: the “solubility in G1/S (log2)” value in the data set on HeLa Kyoto [1] was 0.349. Also, the melting temperature in the data set with HeLa Kyoto [2] (cell cycle stage: G1/S) was determined as 48.8 °C. Moreover, the results for the thermal stability score in the data set on HeLa Kyoto [3] (setting [5]) and in the data set with HeLa Kyoto [3] (cell cycle stage: mitosis) were 1.91 and 4.21, respectively. Also, the “solubility change mitosis (log2)” value in the data set with HeLa Kyoto [4] was -0.495.

Regarding “MDVGELLSYQPNRGTKRPRDDEEEEQKMRRKQTGTRERGRYREEEMTVVEEADDDKKRLLQIIDRDGEEEEEEEEPLDESSVKKMILTFEKRSYKNQELRIKFPDNPEKFMESELDLNDIIQEMHVVATMPDLYHLLVELNAVQSLLGLLGHDNTDVSIAVVDLLQELTDIDTLHESEEGAEVLIDALVDGQVVALLVQNLERLDESVKEEADGVHNTLAIVENMAEFRPEMCTEGAQQGLLQWLLKRLKAKMPFDANKLYCSEVLAILLQDNDENRELLGELDGIDVLLQQLSVFKRHNPSTAEEQEMMENLFDSLCSCLMLSSNRERFLKGEGLQLMNLMLREKKISRSSALKVLDHAMIGPEGTDNCHKFVDILGLRTIFPLFMKSPRKIKKVGTTEKEHEEHVCSILASLLRNLRGQQRTRLLNKFTENDSEKVDRLMELHFKYLGAMQVADKKIEGEKHDMVRRGEIIDNDTEEEFYLRRLDAGLFVLQHICYIMAEICNANVPQIRQRVHQILNMRGSSIKIVRHIIKEYAENIGDGRSPEFRENEQKRILGLLENF [CTNNBL1]”, in the data set with HeLa Kyoto [1], the “solubility in G1/S (log2)” value is -0.0781. The results for the melting temperature in the data set with HeLa Kyoto [2] (cell cycle stage: G1/S) and with HeLa Kyoto [2] (cell cycle stage: mitosis) were 47.6 °C and 47.7 °C, respectively. The figures for the thermal stability score with HeLa Kyoto [3] (setting [5]) and with HeLa Kyoto [3] (cell cycle stage: mitosis) were 3.96 and 7.66, respectively. In the data set on HeLa Kyoto [4], the “solubility change mitosis (log2)” value was determined as 0.207.

As for “MDWLMGKSKAKPNGKKPAAEERKAYLEPEHTKARITDFQFKELVVLPREIDLNEWLASNTTTFFHHINLQYSTISEFCTGETCQTMAVCNTQYYWYDERGKKVKCTAPQYVDFVMSSVQKLVTDEDVFPTKYGREFPSSFESLVRKICRHLFHVLAHIYWAHFKETLALELHGHLNTLYVHFILFAREFNLLDPKETAIMDDLTEVLCSGAGGVHSGGSGDGAGSGGPGAQNHVKER [MOB2]”, the “solubility in G1/S (log2)” value in the data set on HeLa Kyoto [1] is -0.0333. In the data set with HeLa Kyoto [2] (cell cycle stage: G1/S), this sequence came in with a melting temperature of 50.1 °C. For the same sequence, the thermal stability score with HeLa Kyoto [3] (setting [5]) was 0.797; in the data set on HeLa Kyoto [3] (cell cycle stage: mitosis), 0.832. The “solubility change mitosis (log2)” value in the data set on HeLa Kyoto [4] was determined as 0.0638.
